In PMC11063902:
Like-named read-outs stand apart in the source and are kept apart here.

Key:
[1] = target: eIF4G_(721-1104)-Fl (S1041C) (human) (UniProt Q04637); test: fluorescence polarisation; eIF4G_(721-1104)-Fl (fluorescein at S1041C) titrated with eIF3 or eIF3-PR∗; carried out as described previously (ref. 7)
[2] = target: eIF4G_(721-1104)-Fl (S1041C) (human) (UniProt Q04637); test: as above; remark: listed apart in the source
[3] = target: eIF4A•eIF4G_(682-1104)-Fl (UniProt Q04637); test: fluorescence polarisation; as a3 with 200 nM eIF3 added (subsaturating, ~50% of eIF4G-Fl bound); 20 nM eIF4G-Fl, 3 uM eIF4A, 40S subunit titrated; 0.5 mM ATP/MgCl2
[4] = target: eIF4A•eIF4G_(711-1104)-Fl (UniProt Q04637); test: as above
[5] = target: eIF4A•eIF4G_(682-1104)-Fl (UniProt Q04637); test: fluorescence polarisation; 20 nM eIF4G-Fl with 3 uM eIF4A, 40S subunit titrated; Binding Buffer (20 mM Tris acetate pH 7.5, 70 mM KCl, 2 mM free Mg2+, 0.1 mM spermidine, 1 mM DTT, 10% glycerol, 0.1 mg/ml BSA) with 0.5 mM ATP/MgCl2; 10 min ice, 5 min 30 °C, 10 min room temperature
[6] = target: eIF4A•eIF4G_(711-1104)-Fl (UniProt Q04637); test: as above
eIF4G721-1104 (human) = test: fluorescence anisotropy; details: text gives 4.60 ± 0.47 uM; uncapped; 20 mM Tris acetate pH 7.5, 70 mM KCl, 2 mM free Mg2+ (Mg acetate), 0.1 mM spermidine, 1 mM DTT, 10% glycerol, 0.1 mg/ml …; 20 nM RNA; 30 °C for 5 min
eIF4G682-1104 (human) = test: fluorescence anisotropy; details: uncapped; 20 mM Tris acetate pH 7.5, 70 mM KCl, 2 mM free Mg2+ (Mg acetate), 0.1 mM spermidine, 1 mM DTT, 10% glycerol, 0.1 mg/ml BSA; 20 nM RNA; 30 °C for 5 min

eIF3 (intact multi-subunit complex) (from UniProt O15371 1-548; Q99613 1-913; O75822 1-258)
Kd [1]: 124 nM | Kd [2]: 81 nM

40S ribosomal subunit (complex)
KD with 200 nM eIF3 [3]: 76 nM | KD with 200 nM eIF3 [4]: 248 nM | Kd [5]: 129 nM | Kd [6]: 563 nM

CAA-42-FL (42-mer RNA-Fl)
Kd (eIF4G721-1104 (human)): 4600 nM | Kd (eIF4G682-1104 (human)): 463 nM

eIF3-PR∗ (eIF3 cleaved by HIV-1 PR and purified by size exclusion chromatography) (from UniProt O15371 1-114; Q99613 1-913) (complex)
Kd [1]: 75 nM | Kd [2]: 127 nM
